In US20260258141A1 (BIOCYTOGEN PHARMACEUTICALS BEIJING, published 2026):

B1: Teprotumumab analog (antibody, V domains shown)
VH: QVELVESGGGVVQPGRSQRLSCAASGFTFSSYGMHWVRQAPGKGLEWVAIIWFDGSSTYYADSVRGRFTISRDNSKNTLYLQMNSLRAEDTAVYFCARELGRRYFDLWGRGTLVSVSS
VL: EIVLTQSPATLSLSPGERATLSCRASQSVSSYLAWYQQKPGQAPRLLIYDASKRATGIPARFSGSGSGTDFTLTISSLEPEDFAVYYCQQRSKWPPWTFGQGTKVESKR
notes: also called positive control

Assays:
[1] = biological target: human IGF1R (insulin-like growth factor 1 receptor) on cells (human) (UniProt P08069); experiment: flow cytometry on CHO-S-hIGF1R cells, antibody 20 µg/mL
[2] = biological target: cynomolgus monkey IGF1R on cells (cynomolgus monkey); experiment: flow cytometry on CHO-S-fasIGF1R cells, antibody 20 µg/mL
[3] = biological target: T1, human insulin receptor INSR on cells (human, UniProt P06213 28-1382); experiment: flow cytometry on CHO-S-hINSR cells, antibody 20 µg/mL
T1 construct: Expressed on CHO-S cells; also called hINSR; CHO-S-hINSR cells
Procedure: INSR (insulin receptor) and IGF1R are both members of the superfamily of receptor tyrosine kinases (RTKs). The binding activity of anti-IGF1R antibodies to human IGF1R, human INSR and monkey IGF1R was verified by flow cytometry. Briefly, CHO-S-hIGF1R cells (expressing human IGF1R (SEQ ID NO: 45), CHO-S-fasIGF1R cells (expressing cynomolgus monkey IGF1R (SEQ ID NO: 46) and CHO-S-hINSR (expressing SEQ ID NO: 47) were plated in a 96-well plate at a density of 2×10⁵ cells/well respectively. Purified anti-IGF1R antibody with a concentration of 20 μg/mL was added to each well and was incubated at 4° C. for 30 minutes. Then, after one wash with PBS, the cells were incubated with the secondary antibody Alexa Fluor® 647 anti-human IgG Fcγ (Jackson ImmunoResearch Laboratories, Inc., Cat #: 109-606-170) at 4° C. for 15 minutes before flow cytometry analysis. Human IgG1 was used as ISO control.

T1 sequence (P06213 other isoform, or with tags, fused parts or gaps limits assumed): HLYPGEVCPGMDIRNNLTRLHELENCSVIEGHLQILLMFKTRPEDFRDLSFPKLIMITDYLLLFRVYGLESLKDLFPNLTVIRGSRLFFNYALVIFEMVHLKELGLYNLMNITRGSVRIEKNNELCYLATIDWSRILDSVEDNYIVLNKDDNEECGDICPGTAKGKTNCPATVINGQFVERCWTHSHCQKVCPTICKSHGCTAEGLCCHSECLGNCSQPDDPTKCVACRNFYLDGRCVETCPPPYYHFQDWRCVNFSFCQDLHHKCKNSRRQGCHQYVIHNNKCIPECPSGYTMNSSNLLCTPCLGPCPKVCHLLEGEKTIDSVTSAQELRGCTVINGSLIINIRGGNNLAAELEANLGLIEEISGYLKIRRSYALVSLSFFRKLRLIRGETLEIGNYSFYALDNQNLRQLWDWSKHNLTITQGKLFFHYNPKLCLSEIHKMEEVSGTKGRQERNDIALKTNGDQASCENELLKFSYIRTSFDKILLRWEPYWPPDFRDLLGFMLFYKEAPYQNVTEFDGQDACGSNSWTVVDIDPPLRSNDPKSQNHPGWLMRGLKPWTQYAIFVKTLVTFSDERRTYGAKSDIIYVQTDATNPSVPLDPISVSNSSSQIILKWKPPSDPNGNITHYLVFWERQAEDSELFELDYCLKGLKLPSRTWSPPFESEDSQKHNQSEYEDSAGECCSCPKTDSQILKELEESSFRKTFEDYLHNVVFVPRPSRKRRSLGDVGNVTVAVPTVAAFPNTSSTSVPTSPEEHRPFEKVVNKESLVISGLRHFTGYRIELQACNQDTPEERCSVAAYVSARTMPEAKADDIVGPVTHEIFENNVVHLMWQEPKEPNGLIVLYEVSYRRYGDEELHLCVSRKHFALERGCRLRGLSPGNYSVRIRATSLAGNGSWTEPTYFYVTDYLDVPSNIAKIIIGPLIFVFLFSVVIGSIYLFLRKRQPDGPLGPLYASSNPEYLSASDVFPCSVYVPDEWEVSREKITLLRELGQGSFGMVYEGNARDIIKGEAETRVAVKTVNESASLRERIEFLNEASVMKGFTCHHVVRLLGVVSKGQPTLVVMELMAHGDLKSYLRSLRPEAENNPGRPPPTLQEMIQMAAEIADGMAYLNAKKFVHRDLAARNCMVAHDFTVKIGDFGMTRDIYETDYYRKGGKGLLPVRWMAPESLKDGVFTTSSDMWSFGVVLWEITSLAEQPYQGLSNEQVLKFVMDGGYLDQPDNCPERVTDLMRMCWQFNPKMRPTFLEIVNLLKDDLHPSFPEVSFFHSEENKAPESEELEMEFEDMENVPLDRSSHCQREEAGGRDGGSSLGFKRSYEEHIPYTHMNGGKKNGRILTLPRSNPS
cynomolgus monkey IGF1R on cells (cynomolgus monkey), sequence (P08069 other isoform, or with tags, fused parts or gaps limits assumed): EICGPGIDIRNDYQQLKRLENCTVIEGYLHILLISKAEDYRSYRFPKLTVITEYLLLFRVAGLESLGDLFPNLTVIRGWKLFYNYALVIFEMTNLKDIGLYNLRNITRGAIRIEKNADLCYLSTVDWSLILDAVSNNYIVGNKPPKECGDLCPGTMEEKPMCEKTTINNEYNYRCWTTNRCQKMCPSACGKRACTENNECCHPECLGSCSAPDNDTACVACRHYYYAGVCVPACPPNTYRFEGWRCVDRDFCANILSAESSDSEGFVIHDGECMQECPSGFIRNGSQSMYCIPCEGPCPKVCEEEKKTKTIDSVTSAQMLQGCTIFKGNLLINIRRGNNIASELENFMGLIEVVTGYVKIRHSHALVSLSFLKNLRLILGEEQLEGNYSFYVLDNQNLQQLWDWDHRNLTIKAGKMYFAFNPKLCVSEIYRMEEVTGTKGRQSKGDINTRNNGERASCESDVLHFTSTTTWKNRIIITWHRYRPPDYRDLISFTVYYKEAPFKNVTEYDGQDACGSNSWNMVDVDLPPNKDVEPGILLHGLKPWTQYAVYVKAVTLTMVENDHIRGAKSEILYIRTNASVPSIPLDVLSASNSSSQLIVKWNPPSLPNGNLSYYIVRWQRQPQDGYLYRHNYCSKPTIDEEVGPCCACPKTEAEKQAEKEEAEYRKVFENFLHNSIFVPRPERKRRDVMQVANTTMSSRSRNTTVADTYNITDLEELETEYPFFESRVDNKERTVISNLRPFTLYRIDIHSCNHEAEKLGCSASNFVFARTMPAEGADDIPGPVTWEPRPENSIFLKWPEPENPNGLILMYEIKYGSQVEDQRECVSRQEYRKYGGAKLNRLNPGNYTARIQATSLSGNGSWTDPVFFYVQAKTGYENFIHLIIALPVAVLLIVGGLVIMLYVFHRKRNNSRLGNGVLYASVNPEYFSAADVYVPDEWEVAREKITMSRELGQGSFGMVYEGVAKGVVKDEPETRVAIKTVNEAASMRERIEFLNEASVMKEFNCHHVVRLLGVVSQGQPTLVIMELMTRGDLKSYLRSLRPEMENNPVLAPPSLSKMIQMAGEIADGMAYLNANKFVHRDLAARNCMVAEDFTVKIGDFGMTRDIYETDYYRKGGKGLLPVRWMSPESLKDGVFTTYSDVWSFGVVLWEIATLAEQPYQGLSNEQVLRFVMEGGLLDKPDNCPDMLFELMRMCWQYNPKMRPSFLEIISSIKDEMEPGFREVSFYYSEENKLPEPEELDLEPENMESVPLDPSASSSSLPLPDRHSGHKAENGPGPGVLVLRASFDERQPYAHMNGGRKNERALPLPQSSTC
human IGF1R (insulin-like growth factor 1 receptor) on cells (human), sequence (P08069 31-1367 limits assumed): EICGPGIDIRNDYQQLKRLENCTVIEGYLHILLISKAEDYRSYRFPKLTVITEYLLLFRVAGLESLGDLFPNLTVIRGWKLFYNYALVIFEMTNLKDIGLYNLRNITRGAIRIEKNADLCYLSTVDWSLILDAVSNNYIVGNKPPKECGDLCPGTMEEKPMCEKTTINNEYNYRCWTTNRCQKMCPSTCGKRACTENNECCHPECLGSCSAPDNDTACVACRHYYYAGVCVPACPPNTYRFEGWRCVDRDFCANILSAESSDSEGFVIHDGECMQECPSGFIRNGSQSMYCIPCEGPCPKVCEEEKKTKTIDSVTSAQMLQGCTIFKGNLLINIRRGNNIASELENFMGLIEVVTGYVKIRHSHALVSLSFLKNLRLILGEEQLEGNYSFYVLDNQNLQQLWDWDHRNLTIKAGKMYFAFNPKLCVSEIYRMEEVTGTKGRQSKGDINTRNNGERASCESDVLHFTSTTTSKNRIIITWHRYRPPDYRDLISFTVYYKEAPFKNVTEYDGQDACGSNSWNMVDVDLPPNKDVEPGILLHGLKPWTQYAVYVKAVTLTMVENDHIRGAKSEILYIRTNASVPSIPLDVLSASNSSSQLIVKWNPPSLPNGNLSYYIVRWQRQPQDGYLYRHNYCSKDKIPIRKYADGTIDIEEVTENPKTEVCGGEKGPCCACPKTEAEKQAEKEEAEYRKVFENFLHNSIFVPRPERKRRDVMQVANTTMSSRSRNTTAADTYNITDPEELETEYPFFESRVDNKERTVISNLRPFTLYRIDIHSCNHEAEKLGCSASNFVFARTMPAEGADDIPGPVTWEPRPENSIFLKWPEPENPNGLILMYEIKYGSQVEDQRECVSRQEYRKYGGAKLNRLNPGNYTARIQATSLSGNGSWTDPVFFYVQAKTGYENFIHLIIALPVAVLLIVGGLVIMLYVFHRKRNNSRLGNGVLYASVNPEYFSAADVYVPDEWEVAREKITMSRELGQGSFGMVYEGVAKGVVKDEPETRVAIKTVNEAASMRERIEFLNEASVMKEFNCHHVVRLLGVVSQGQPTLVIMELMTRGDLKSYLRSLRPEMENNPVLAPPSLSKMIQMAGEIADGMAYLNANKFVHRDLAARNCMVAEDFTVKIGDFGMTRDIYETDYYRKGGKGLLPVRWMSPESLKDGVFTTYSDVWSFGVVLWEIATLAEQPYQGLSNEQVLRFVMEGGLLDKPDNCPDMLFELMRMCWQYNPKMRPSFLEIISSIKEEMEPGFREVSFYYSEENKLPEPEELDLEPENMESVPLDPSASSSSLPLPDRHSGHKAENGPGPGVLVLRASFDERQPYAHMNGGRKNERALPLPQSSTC

Row | Molecule | Percentage of positive cells [1] | Percentage of positive cells [2] | Percentage of positive cells [3]
1 | Human IgG1 ISO control (antibody) | 0.7% | 0.3% | 0.4%
2 | B1 | – | – | 1.5%
